US12553059B2, “Plant serine proteases” (priority 2018, dated 2026)
“Also recorded” adds a separate entry of the source.

Key:
HIV-1 UG37 gp140 = assay: ELISA antigen binding of 2G12 (I19R 2G12 precomplexed with anti-Fc); conditions: 2G12 (I19R variant) cleaved by apoplastic proteases
Procedure: A slightly modified ELISA procedure was used for the analysis of 2G12 containing an I19R mutation in the heavy chain (I19R 2G12). Wells were coated with 500 ng HIV-1 UG37 gp140 in PBS. […] (Doores K J et al. J Virol 84 (2010):10690-10699) prior to appropriate dilution and addition to the wells. Detection of antigen-bound mAb molecules was performed with 0.1 μg/mL goat anti-human kappa chain peroxidase conjugate (SIGMA-ALDRICH, A7164).

monoclonal antibody 2F5 = assay: In vitro degradation assay with purified proteases, substrate 2F5; format: biochemical; conditions: purified protease 10-100 μg/mL, pH 5.5
Sequence of monoclonal antibody 2F5 (as listed by the source): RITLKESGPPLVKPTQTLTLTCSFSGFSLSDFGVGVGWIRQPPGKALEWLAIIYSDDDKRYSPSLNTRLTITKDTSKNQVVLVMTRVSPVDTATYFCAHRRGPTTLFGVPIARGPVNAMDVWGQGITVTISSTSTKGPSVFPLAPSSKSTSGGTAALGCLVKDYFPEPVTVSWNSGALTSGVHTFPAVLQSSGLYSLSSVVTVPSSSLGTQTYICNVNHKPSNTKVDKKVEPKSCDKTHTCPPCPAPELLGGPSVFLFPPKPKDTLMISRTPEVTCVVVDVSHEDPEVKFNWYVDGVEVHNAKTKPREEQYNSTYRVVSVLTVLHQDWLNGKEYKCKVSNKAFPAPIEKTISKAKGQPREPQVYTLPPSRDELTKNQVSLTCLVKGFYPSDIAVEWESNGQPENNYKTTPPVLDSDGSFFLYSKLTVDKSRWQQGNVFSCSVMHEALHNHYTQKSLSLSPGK
Procedure: (§1) Leaves of Nicotiana benthamiana […] (Strasser R et al. Plant Biotechnol J 6 (2008):392-402) expressing a subtilisin-like serine protease construct were submerged in extraction buffer (50 mM sodium phosphate/200 mM KCl, pH 7.0) prior to vacuum exposure in a desiccator. Exogenous buffer was removed prior to centrifugation of the leaves for 15 min at 2000 g and 4° C. The recovered solution was then supplemented with 20 mM imidazole and loaded on a 1 mL column of Chelating Sepharose (GE […]) charged with Ni^2+ ions. After washing with the same buffer, the recombinant subtilisin-like serine protease was eluted with 250 mM imidazole in extraction buffer. Protein-containing eluate fractions were pooled, dialysed twice against 2 liters of extraction buffer and then concentrated by ultrafiltration using Microsep Advance centrifugal devices (10K MWCO; PALL CORPORATION).
(§2) After incubation for up to 16 h, reactions were stopped by addition of SDS-PAGE sample buffer.
(§3) For isolation of mAb degradation products, antibodies ([…]) were digested with apoplastic fluid or purified subtilisin-like serine proteases in 500 μL 100 mM sodium acetate (pH 5.5) to completion. After addition of 10 μL settled rProtein A Sepharose 4 Fast Flow beads, the samples were incubated for 2 h at 4° C. under constant agitation. The beads were then collected by centrifugation, washed four times with 500 μL PBS prior to elution of the bound antibody fragments with 100 μL 100 mM glycine (pH 3.0). The eluate was immediately neutralized with 10 μL 1 M Tris/HCl (pH 8.0). This elution/neutralization cycle was repeated four times. […]
(§4) N-terminal sequence analysis of bands blotted on polyvinylidene difluoride membranes (BIO-RAD) was performed by Edman degradation (Niemer M et al. Biotechnol J 9 (2014):493-500). […] Eluted polypeptides were analysed online on a maxis 4G ETD Q-TOF mass spectrometer (BRUKER, Billerica, USA) equipped with an electrospray ionization source and operated in the positive ion mode (m/z range: 400-3800). […]

I19R 2G12 = assay: In vitro degradation assay with purified proteases, substrate I19R 2G12; format: biochemical; conditions: for cleavage sites in I19R 2G12 heavy chain (arrows): N-terminal sequencing and mass spectrometry; for cleavage / degradation of I19R 2G12 by purified protease: purified protease 10-100 μg/mL, pH 5.5
Sequence of I19R 2G12 (as listed by the source, stated change not applied): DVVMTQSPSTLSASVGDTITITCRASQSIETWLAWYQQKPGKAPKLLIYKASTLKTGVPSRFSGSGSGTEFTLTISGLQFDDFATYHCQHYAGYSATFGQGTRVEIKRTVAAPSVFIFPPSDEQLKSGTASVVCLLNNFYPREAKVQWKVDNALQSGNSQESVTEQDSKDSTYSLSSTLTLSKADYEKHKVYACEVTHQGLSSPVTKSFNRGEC
Sequence of I19R 2G12 (as listed by the source, stated change not applied): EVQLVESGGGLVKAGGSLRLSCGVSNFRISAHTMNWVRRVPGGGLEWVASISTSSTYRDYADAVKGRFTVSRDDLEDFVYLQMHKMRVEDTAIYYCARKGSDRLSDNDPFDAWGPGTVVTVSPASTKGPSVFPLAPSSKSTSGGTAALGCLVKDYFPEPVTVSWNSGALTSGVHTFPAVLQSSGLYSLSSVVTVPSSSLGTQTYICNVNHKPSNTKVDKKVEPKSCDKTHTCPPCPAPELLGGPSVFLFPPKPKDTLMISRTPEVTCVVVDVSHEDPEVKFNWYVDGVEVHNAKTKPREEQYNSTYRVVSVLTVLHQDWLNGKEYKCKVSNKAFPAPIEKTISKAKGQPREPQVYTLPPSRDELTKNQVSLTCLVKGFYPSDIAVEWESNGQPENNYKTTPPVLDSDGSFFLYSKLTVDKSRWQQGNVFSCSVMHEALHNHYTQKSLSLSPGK
Procedure: as §1, §2
For isolation of mAb degradation products, antibodies ([…]) were digested with apoplastic fluid or purified subtilisin-like serine proteases in 500 μL 100 mM sodium acetate (pH 5.5) to completion. After addition of 10 μL settled rProtein A Sepharose 4 Fast Flow beads, the samples were incubated for 2 h at 4° C. under constant agitation. The beads were then collected by centrifugation, washed four times with 500 μL PBS prior to elution of the bound antibody fragments with 100 μL 100 mM glycine (pH 3.0). The eluate was immediately neutralized with 10 μL 1 M Tris/HCl (pH 8.0). This elution/neutralization cycle was repeated four times. All eluate fractions were combined and concentrated by ultrafiltration after buffer exchange into PBS containing 0.02% (v/v) NaN3.
Samples were fractionated by 12.5% SDS-PAGE under reducing conditions and then blotted on nitrocellulose membranes (GE […]).
as §4, with “(2014):493-500). Alternatively, antibodies or their degradation products were digested with PNGase F (ROCHE) to release their N-glycans, reduced with 10 mM DTE (1 h, 56° C.) and then fractionated on a THERMO PROSWIFT RP-4H column (250×0.20 mm) using a Dionex UltiMate 3000 HPLC system (THERMO […]).” for “(2014):493-500).”

PG9 = assay: In vitro degradation assay with purified proteases, substrate PG9; format: biochemical; conditions: for cleavage / degradation of PG9 by purified protease: purified protease 10-100 μg/mL, pH 5.5
Sequence of PG9 (as listed by the source): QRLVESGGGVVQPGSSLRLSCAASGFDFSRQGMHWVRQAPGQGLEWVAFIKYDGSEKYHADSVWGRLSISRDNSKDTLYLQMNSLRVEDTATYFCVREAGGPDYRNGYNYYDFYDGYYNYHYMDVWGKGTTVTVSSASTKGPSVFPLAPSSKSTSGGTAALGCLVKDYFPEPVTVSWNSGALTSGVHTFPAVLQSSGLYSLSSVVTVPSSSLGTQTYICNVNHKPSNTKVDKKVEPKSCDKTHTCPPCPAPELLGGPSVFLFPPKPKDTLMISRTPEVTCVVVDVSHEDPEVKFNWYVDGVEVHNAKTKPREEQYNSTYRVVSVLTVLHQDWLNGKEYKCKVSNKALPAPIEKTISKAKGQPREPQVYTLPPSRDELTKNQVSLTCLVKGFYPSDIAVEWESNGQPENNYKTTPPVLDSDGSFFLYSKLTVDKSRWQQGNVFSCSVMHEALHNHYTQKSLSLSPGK
Procedure: as §1, §2, §3, §4

SBT1 (SEQ ID No. 2) = assay: Kinetic analysis of protease-inhibitor interactions, SBT1; format: biochemical, Nicotiana benthamiana; conditions: recombinant inhibitor from E. coli; substrate Abz-VILDAVRA-Y(NO2)
Procedure: (§5) These assays were performed as described (Hohl M et al., 2017, J. Biol. Chem. 292, 6389-6401). A fluorogenic peptide substrate, Abz-[…]-Y(NO2) (SEQ ID NO: 37), was used for measuring the enzymatic activity of the subtilisin-like serine proteases tested. Recombinant inhibitors (prepared as described in Hohl M et al., 2017, J. Biol. Chem. 292, 6389-6401) were added in serial dilutions. Substrate cleavage was monitored in an Infinite M200 Pro microplate reader as increase in relative fluorescence (λex=320 nm; λem=420 nm). Inhibition constants (Ki) were calculated using the Morrison equation.

SBT2 (SEQ ID No. 14) = assay: Kinetic analysis of protease-inhibitor interactions, SBT2; format: biochemical, Nicotiana benthamiana; conditions: recombinant inhibitor from E. coli; substrate Abz-VILDAVRA-Y(NO2)
Sequence of SBT2 (SEQ ID No. 14) (as listed by the source): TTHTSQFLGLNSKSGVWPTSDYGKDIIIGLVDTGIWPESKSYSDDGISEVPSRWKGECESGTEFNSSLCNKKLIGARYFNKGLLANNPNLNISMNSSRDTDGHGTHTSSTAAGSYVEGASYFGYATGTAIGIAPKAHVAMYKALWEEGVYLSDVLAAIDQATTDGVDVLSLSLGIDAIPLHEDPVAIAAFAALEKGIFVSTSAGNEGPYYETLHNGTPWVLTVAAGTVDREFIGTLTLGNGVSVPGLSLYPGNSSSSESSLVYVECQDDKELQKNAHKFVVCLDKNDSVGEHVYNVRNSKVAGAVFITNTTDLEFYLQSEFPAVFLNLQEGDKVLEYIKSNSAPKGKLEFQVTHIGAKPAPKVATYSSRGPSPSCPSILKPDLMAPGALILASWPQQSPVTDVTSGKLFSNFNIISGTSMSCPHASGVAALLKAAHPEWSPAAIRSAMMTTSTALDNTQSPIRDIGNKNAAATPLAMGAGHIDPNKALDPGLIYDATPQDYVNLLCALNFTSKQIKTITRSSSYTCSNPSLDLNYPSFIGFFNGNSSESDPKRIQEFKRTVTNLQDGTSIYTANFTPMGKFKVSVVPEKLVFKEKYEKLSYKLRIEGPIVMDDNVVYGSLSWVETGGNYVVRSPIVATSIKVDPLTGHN
Procedure: as §5

| Molecule | cleavage / degradation of 2F5 by purified protease (monoclonal antibody 2F5) | cleavage sites in I19R 2G12 heavy chain (arrows) (I19R 2G12) | cleavage / degradation of I19R 2G12 by purified protease (I19R 2G12) | cleavage / degradation of PG9 by purified protease (PG9) | also measured |
| --- | --- | --- | --- | --- | --- |
| 2G12: neutralizing anti-HIV antibody, heavy chain SEQ ID No. 24, light chain SEQ ID No. 28 |  |  |  |  | antigen-binding activity of cleaved vs intact antibody (ELISA) (HIV-1 UG37 gp140): severely reduced binding; also recorded: much lower antigen-binding activity |
| trypsin [reference compound] | did not display cleavage activity; also recorded: cannot cleave |  |  |  |  |
| SBT3: other serine protease (Cedzich A et al. 2009) (protein, UniProt O82777 113-761, looked up) Subtilisin-like protease SBT3: TTHTSDFLKLNPSSGLWPASGLGQDVIVAVLDSGIWPESASFQDDGMPEIPKRWKGICKPGTQFNASMCNRKLIGANYFNKGILANDPTVNITMNSARDTDGHGTHCASITAGNFAKGVSHFGYAPGTARGVAPRARLAVYKFSFNEGTFTSDLIAAMDQAVADGVDMISISYGYRFIPLYEDAISIASFGAMMKGVLVSASAGNRGPGIGSLNNGSPWILCVASGHTDRTFAGTLTLGNGLKIRGWSLFPARAFVRDSPVIYNKTLSDCSSEELLSQVENPENTIVICDDNGDFSDQMRIITRARLKAAIFISEDPGVFRSATFPNPGVVVNKKEGKQVINYVKNSVTPTATITFQETYLDTKPAPVVAASSARGPSRSYLGISKPDILAPGVLILAAYPPNVFATSIGTNILLSTDYILESGTSMAAPHAAGIAAMLKAAHPEWSPSAIRSAMMTTADPLDNTRKPIKDSDNNKAATPLDMGAGHVDPNRALDPGLVYDATPQDYVNLLCSLNFTEEQFKTIARSSASHNCSNPSADLNYPSFIALYSIEGNFTLLEQKFKRTVTNVGKGAATYKAKLKAPKNSTISVSPQILVFKNKNEKQSYTLTIRYIGDEGQSRNVGSITWVEQNGNHSVRSPIVTSPIIEVW | did not display cleavage activity; also recorded: cannot cleave |  |  |  |  |
| SBT2: Nicotiana benthamiana subtilisin-like serine protease comprising SEQ ID No. 14 (protein, listed as Nicotiana benthamiana) MANHITLCIWLLFFFISIFSLAKSETYIIHMDLSAMPKAFSSHHNWYLTTLSSVSDSSTNHKDFLSSKLVYAYTNAIHGFSASLSPSELEAIKYSPGYVSSIKDISVKIDTTHTSQFLGLNSKSGVWPTSDYGKDIIIGLVDTGIWPESKSYSDDGISEVPSRWKGECESGTEFNSSLCNKKLIGARYFNKGLLANNPNLNISMNSSRDTDGHGTHTSSTAAGSYVEGASYFGYATGTAIGIAPKAHVAMYKALWEEGVYLSDVLAAIDQAITDGVDVLSLSLGIDAIPLHEDPVAIAAFAALEKGIFVSTSAGNEGPYYETLHNGTPWVLTVAAGTVDREFIGTLTLGNGVSVPGLSLYPGNSSSSESSLVYVECQDDKELQKNAHKFVVCLDKNDSVGEHVYNVRNSKVAGAVFITNTTDLEFYLQSEFPAVFLNLQEGDKVLEYIKSNSAPKGKLEFQVTHIGAKPAPKVATYSSRGPSPSCPSILKPDLMAPGALILASWPQQSPVTDVTSGKLFSNFNIISGTSMSCPHASGVAALLKAAHPEWSPAAIRSAMMTTSTALDNTQSPIRDIGNKNAAATPLAMGAGHIDPNKALDPGLIYDATPQDYVNLLCALNFTSKQIKTITRSSSYTCSNPSLDLNYPSFIGFFNGNSSESDPKRIQEFKRTVTNLQDGTSIYTANFTPMGKFKVSVVPEKLVFKEKYEKLSYKLRIEGPIVMDDNVVYGSLSWVETGGNYVVRSPIVATSIKVDPLTGHN |  | SD↓RL | capable of acting on; also recorded: can cleave the heavy chains | capable of acting on; also recorded: can cleave the heavy chains |  |
| SBT1: Nicotiana benthamiana subtilisin-like serine protease comprising SEQ ID No. 2 (protein, listed as Nicotiana benthamiana) MKGIISLFFCFSLFIVSFILREADSASQAQNNGIYIVYMGAAASSNGGTRHDQARLISSLIRRNKHAVVHSYNNGFSGFAARLSESEAKSMAQRPGVISVFPDPVLQLHTTHSWDFLKYQTDEKINSSPSSGSDSSLIGADTIIGILDTGIWPESESFNDKDMGPIPSRWNGTCMDGQDFGSSKCNKKIVGARFYEESDDSGTKIAGSARDENGHGTHVASTAAGSPVAGASYYGLAAGTATGGSPGSRISMYRVCTTFGCRGSAIMKAFDDAIADGVDVLSLSLGSSPGLEPDFPSNPIAIGAFHAVEKGITVVCSAGNSGPGPKTVVNTAPWILTVAATTIDRDFETDIVLGGNKLIKGGGINFGNMTKSSVYPLIHGNSTKSNDNVSEADARSCVPGSLDENKVKGKIVLCENLDDGEYFPSDKLDEVKSRGGVGFILIDDDERTVAPKFNSFSAGVVSKKDGNEILAYINSTRNPVASILPTVSITKYKPAPVVAYFSSRGPAYNTPNLLKPDITAPGVAILAAWPGNDTSEALPGQKPPIFNLLSGTSMSCPHVSGIAATVKAVNPTWSPSAVKSAIMTTAIQTNNLKAPITTVSGSKATPYDIGAGEASTSGPLKPGLVYETDVADYLQFLCSVGFNISQIKLISITVPEDFSCPKNSTSELVSNMNYPSIAISSLKENEPKKVTRTVTNTGEEASVYTTVIEAPKGLEVQVIPTKLEFTNKSKKLSYDVSFKASSTSKEDLFGSITWTNGKYKVRSPFVVSSN | degrade; also recorded: can cleave the heavy chains | ↓TV and TV↓VT | degrade; also recorded: can cleave the heavy chains | degrade; also recorded: can cleave the heavy chains | cleavage sites in PG9 heavy chain (arrows) (PG9; N-terminal sequencing and mass spectrometry): DGYYNYHYM↓[…] |
| S11: S. lycopersicum subtilisin propeptide-like inhibitor, SEQ ID No. 33, recombinant from E. coli (protein, Protease inhibitor) MMKKDQILSSILLFFFLFTAFITTMADSQASSQPSNESKVHIVYTEQPKDQEPEEYHIKTLTSVLGSEEAAKEALLYSYKHAASGFSAKLTAEQVSELSKLPGVLQVVPSQTVQLHTGRV |  |  |  |  | binding affinity to / inhibition of SBT1 (SBT1 (SEQ ID No. 2)): high affinities; binding affinity to / inhibition of SBT2 (SBT2 (SEQ ID No. 14)): high affinities |
